{"source": "patent US9670288B2", "about": "“Osteoprotegerin in neuroprotection” (Massachusetts Eye and Ear Infirmary, priority 2011, dated 2017)", "molecules": {"B1": {"name": "OPG: Osteoprotegerin, cytokine receptor of the TNF receptor superfamily; recombinant protein from R & D Systems (protein)", "chain": "MNNLLCCALVFLDISIKWTTQETFPPKYLHYDEETSHQLLCDKCPPGTYLKQHCTAKWKTVCAPCPDHYYTDSWHTSDECLYCSPVCKELQYVKQECNRTHNRVCECKEGRYLEIEFCLKHRSCPPGFGVVQAGTPERNTVCKRCPDGFFSNETSSKAPCRKHTNCSVFGLLLTQKGNATHDNICSGNSESTQKCGIDVTLCEEAFFRFAVPTKFTPNWLSVLVDNLPGTKVNAESVERIKRQHSSQEQTFQLLKLWKHQNKDQDIVKKIIQDIDLCENSVQRHIGHANLTFEQLRSLMESLPGKKVGAEDIEKTIKACKPSDQILKLLSLWRIKNGDQDTLKGLMHALKHSKTYHFPKTVTQSLKKTIRFLHSFTMYKLYQKLFLEMIGNQVQSVKISCL", "modifications": "homo sapiens OPG", "notes": "Osteoprotegerin, cytokine receptor of the TNF receptor superfamily; recombinant protein from R & D Systems"}, "B2": {"name": "RANKL: RANK ligand, from R & D Systems (protein, UniProt O14788 140-317, looked up)", "Tumor necrosis factor ligand …": "IRAEKAMVDGSWLDLAKRSKLEAQPFAHLTINATDIPSGSHKVSLSSWYHDRGWAKISNMTFSNGKLIVNQDGFYYLYANICFRHHETSGDLATEYLQLMVYVTKTSIKIPSSHTLMKGGSTKYWSGNSEFHFYSINVGGFFKLRSGEEISIEVSNPSLLDPDQDATYFGAFKVRDID"}, "B3": {"name": "TRAIL: TNF-related apoptosis-inducing ligand, recombinant (protein, UniProt P50591 1-281, looked up)", "Tumor necrosis factor ligand …": "MAMMEVQGGPSLGQTCVLIVIFTVLLQSLCVAVTYVYFTNELKQMQDKYSKSGIACFLKEDDSYWDPNDEESMNSPCWQVKWQLRQLVRKMILRTSEETISTVQEKQQNISPLVRERGPQRVAAHITGTRGRSNTLSSPNSKNEKALGRKINSWESSRSGHSFLSNLHLRNGELVIHEKGFYYIYSQTYFRFQEEIKENTKNDKQMVQYIYKYTSYPDPILLMKSARNSCWSKDAEYGLYSIYQGGIFELKENDRIFVSVTNEHLIDMDHEASFFGAFLVG"}}, "type_in_all_cases": "cell-based, mice", "key": {"ERK kinase [1]": {"test_system": "ERK kinase", "experiment": "H2O2 induced ERK kinase activation in cultured Schwann cells / SGCs (immunoblot, p-ERK)", "conditions": "opg −/− Schwann cells; pre-treatment 3 hours and co-treatment; OPG 100 ng/L, PD 98059 20 nM, zoledronate 10 μM; 500 μM H2O2"}, "opg −/− spheres [2]": {"test_system": "opg −/− spheres", "experiment": "Apoptosis in floating spiral ganglion spheres (cleaved caspase 3 staining)", "conditions": "third generation opg −/− spheres, Rankl 100 ng/ml, OPG 100 ng/ml, zoledronate 1 μM, 3 days, passaged", "protocol": "For each experiment, spiral ganglia of four to six 1-3 day old WT or opg −/− mice were dissected in HBSS. The SGCs (neurons and glia) were dissociated using trypsin (0.25%) for 13 min in PBS at 37° C. The enzymatic digestion was stopped by adding 10% FBS in DMEM-high glucose medium. The tissue was washed twice and gently triturated. The cell suspension was passed through a 70 μm cell strainer (BD Labware). Single cells were cultured in DMEM-high glucose and F12 (mixed 1:1) supplemented with N2 and B27 (Invitrogen), EGF (20 ng/mL; Chemicon), bFGF (10 ng/mL; Chemicon), IGF-1 (50 ng/mL; Chemicon), and heparan sulfate (50 ng/mL; Sigma). Newly formed spheres were cultured in ultra-low-cluster plates (Costar) for 4 days and were termed first generation spheres. Spheres were subsequently passaged every 4 days until the third generation, when 5-10 spheres were collected and dissociated (Oshima K, Grimm C M, Corrales C E, Senn P, Martinez Monedero R, Géléoc GS, Edge A, Holt J R, Heller S. 2007. J Assoc Res Otolaryngol. 2007; 8:18-31). Spheres were passaged at a clonal level for 3 more times. Before each passage, the sphere morphology was assessed and the spheres were counted using the Metamorph counting software. At the third generation, spiral ganglion spheres from WT and opg −/− mice were separated into 4 groups and treated with Rankl (100 ng/ml), OPG (100 ng/ml) or zoledronate (1 μM). The control group was untreated. After 3 days of treatment, the spheres were passaged and treated again for 3 days. Twelve hours before plating, proliferating cells in the spheres were labeled with BrdU (3 μg/ml). After 12 hours, the spheres were plated for 1 hour on poly-L-lysine (0.01%, Cultrex)-coated glass coverslips (Marienfeld GmbH, Germany), fixed in 4% paraformaldehyde for 10 min, treated with 1N HCl for antigen retrieval for BrdU staining, incubated for 1 hour in blocking solution (0.3% Triton, 15% goat serum in 1×PBS), and incubated overnight with either anti-cleaved caspase3 antibody to assess cell death, or anti-BrdU antibody to assess cell proliferation. After 3 washing steps with 1×PBS, the spheres were incubated in secondary antibody for 2 hours (568 Alexa Fluor anti rat or anti mouse). Nuclei were stained with DAPI. Staining was visualized by epifluorescence microscopy (Axioskop 2 Mot Axiocam, Zeiss). Counting was done with the Metamorph software."}, "[3]": {"test_system": "spiral ganglion cells (SGCs) / Schwann cells", "experiment": "H2O2 induced oxidative cell death of cultured spiral ganglion cells (nuclear condensation, Hoechst 33342)", "conditions": "for H2O2 induced oxidative cell death: opg −/− SGCs/Schwann cells, pretreatment followed by co-treatment, OPG 100 ng/L, PD 98059 20 nM, zoledronate 10 μM, 500 μM H2O2"}, "ERK kinase [4]": {"test_system": "ERK kinase", "experiment": "TRAIL induced ERK phosphorylation in cultured Schwann cells (immunoblot)", "conditions": "for TRAIL induced ERK phosphorylation / ERK activation: opg −/− Schwann cells, pretreatment, TRAIL 100 ng/ml, OPG 100 ng/l, PD98059 20 nM, zoledronate 10 μM"}, "Schwann cells": {"test_system": "Schwann cells", "experiment": "TRAIL induced cell death (cleaved caspase 3) in cultured Schwann cells", "conditions": "for TRAIL induced cleaved caspase 3 (cell death): opg −/− Schwann cells, pretreatment, TRAIL 100 ng/ml, OPG 100 ng/l, PD98059 20 nM, zoledronate 10 μM"}, "opg −/− spheres [5]": {"test_system": "opg −/− spheres", "experiment": "Proliferation of floating spiral ganglion spheres (BrdU staining)", "conditions": "third generation opg −/− spheres, Rankl 100 ng/ml, OPG 100 ng/ml, zoledronate 1 μM, 3 days, passaged", "protocol": "For each experiment, spiral ganglia of four to six 1-3 day old WT or opg −/− mice were dissected in HBSS. The SGCs (neurons and glia) were dissociated using trypsin (0.25%) for 13 min in PBS at 37° C. The enzymatic digestion was stopped by adding 10% FBS in DMEM-high glucose medium. The tissue was washed twice and gently triturated. The cell suspension was passed through a 70 μm cell strainer (BD Labware). Single cells were cultured in DMEM-high glucose and F12 (mixed 1:1) supplemented with N2 and B27 (Invitrogen), EGF (20 ng/mL; Chemicon), bFGF (10 ng/mL; Chemicon), IGF-1 (50 ng/mL; Chemicon), and heparan sulfate (50 ng/mL; Sigma). Newly formed spheres were cultured in ultra-low-cluster plates (Costar) for 4 days and were termed first generation spheres. Spheres were subsequently passaged every 4 days until the third generation, when 5-10 spheres were collected and dissociated (Oshima K, Grimm C M, Corrales C E, Senn P, Martinez Monedero R, Géléoc GS, Edge A, Holt J R, Heller S. 2007. J Assoc Res Otolaryngol. 2007; 8:18-31). Spheres were passaged at a clonal level for 3 more times. Before each passage, the sphere morphology was assessed and the spheres were counted using the Metamorph counting software. At the third generation, spiral ganglion spheres from WT and opg −/− mice were separated into 4 groups and treated with Rankl (100 ng/ml), OPG (100 ng/ml) or zoledronate (1 μM). […]"}, "p38, JNK or NF-κB p65": {"test_system": "p38, JNK or NF-κB p65", "experiment": "p38, JNK and NF-κB p65 activity after TRAIL in cultured Schwann cells (immunoblot)", "conditions": "opg −/− Schwann cells treated with TRAIL"}}, "note": "Entries after “also recorded” stand apart in the source; their conditions may differ.", "data": [{"molecule": "O=P(O)(O)C(O)(Cn1ccnc1)P(=O)(O)O", "note": "[zoledronate, reference compound]", "values": [{"measurement": "H2O2 induced ERK kinase activation", "setting": "ERK kinase [1]", "result": "suppressed"}, {"measurement": "apoptosis in opg−/− spheres (number of cleaved caspase 3 positive cells)", "setting": "opg −/− spheres [2]", "result": "reduced; also recorded: decreased"}, {"measurement": "H2O2 induced oxidative cell death", "setting": "[3]", "result": "rescued"}, {"measurement": "TRAIL induced ERK phosphorylation / ERK activation", "setting": "ERK kinase [4]", "result": "suppressed"}, {"measurement": "TRAIL induced cleaved caspase 3 (cell death)", "setting": "Schwann cells", "result": "suppressed"}, {"measurement": "proliferation of opg−/− spheres (number of BrdU positive cells)", "setting": "opg −/− spheres [5]", "result": "significantly enhanced; also recorded: increased"}]}, {"molecule": "COc1cccc(-c2cc(=O)c3ccccc3o2)c1N", "note": "[PD 98059, reference compound]", "values": [{"measurement": "H2O2 induced ERK kinase activation", "setting": "ERK kinase [1]", "result": "suppressed"}, {"measurement": "H2O2 induced oxidative cell death", "setting": "[3]", "result": "rescued"}, {"measurement": "TRAIL induced ERK phosphorylation / ERK activation", "setting": "ERK kinase [4]", "result": "suppressed"}, {"measurement": "TRAIL induced cleaved caspase 3 (cell death)", "setting": "Schwann cells", "result": "suppressed"}]}, {"molecule": "B1", "values": [{"measurement": "H2O2 induced ERK kinase activation", "setting": "ERK kinase [1]", "result": "suppressed"}, {"measurement": "apoptosis in opg−/− spheres (number of cleaved caspase 3 positive cells)", "setting": "opg −/− spheres [2]", "result": "reduced; also recorded: decreased"}, {"measurement": "cell death without H2O2 treatment", "setting": "[3]; opg −/− SGCs, no H2O2", "result": "did not significantly affect"}, {"measurement": "H2O2 induced oxidative cell death", "setting": "[3]", "result": "rescued"}, {"measurement": "TRAIL induced ERK phosphorylation / ERK activation", "setting": "ERK kinase [4]", "result": "suppressed"}, {"measurement": "TRAIL induced cleaved caspase 3 (cell death)", "setting": "Schwann cells", "result": "suppressed"}, {"measurement": "proliferation of opg−/− spheres (number of BrdU positive cells)", "setting": "opg −/− spheres [5]", "result": "significantly enhanced; also recorded: increased"}]}, {"molecule": "B2", "values": [{"measurement": "apoptosis in opg−/− spheres (number of cleaved caspase 3 positive cells)", "setting": "opg −/− spheres [2]", "result": "significantly increased"}, {"measurement": "apoptosis in opg−/− spheres (number of cleaved caspase 3 positive cells)", "setting": "opg −/− spheres [2]; listed as Rankl", "result": "increased"}]}, {"molecule": "B3", "values": [{"measurement": "ERK phosphorylation caused by TRAIL itself", "setting": "ERK kinase [4]; cells treated with TRAIL (100 ng/ml)", "result": "activated"}, {"measurement": "cleavage of caspase 3 / cell death caused by TRAIL itself", "setting": "Schwann cells; Schwann cells treated with recombinant TRAIL (100 ng/ml)", "result": "increased; also recorded: induced cell death"}, {"measurement": "p38, JNK or NF-κB p65 activity after TRAIL", "setting": "p38, JNK or NF-κB p65", "result": "did not affect"}]}]}
